Assay [1] deals with 151. Put plainly: Biacore. A general note: Surface plasmon resonance follows binding to a sensor surface in real time, without labels.
In assay [2] the target is 158.3. Put plainly: Biacore.
In a further assay the target is 2.69 LC2. Put plainly: Biacore.
The target of assay [3] is 151. Kind of assay: KinExA.
Assay [4] concerns the target 158.3. Put plainly: KinExA. In general terms: Kinetic exclusion samples the free partner from a solution-phase mixture.

B1: Soluble human MSLN (other)
chain: EVEKTACPSGKKAREIDESLIFYKKWELEACVDAALLATQMDRVNAIPFTYEQLDVLKHKLDELYPQGYPESVIQHLGYLFLKMSPEDIRKWNVTSLETLKALLEVNKGHEMSPQAPRRPLPQVATLIDRFVKGRGQLDKDTLDTLTAFYPGYLCSLSPEELSSVPPSSIWAVRPQDLDTCDPRQLDVLYPKARLAFQNMNGSEYFVKIQSFLGGAPTEDLKALSQQNVSMDLATFMKLRTDAVLPLTVAEVQKLLGPHVEGLKAEERHRPVRDWILRQRQDDLDTLGLGLQGGIPNGYLVLDLSMQEALS
For B1, the Kd came to 17400 pM with 151 [1], 2400 pM with 158.3 [2] and 228 pM with 2.69 LC2.

B2: Native hu MSLN (cells) (other)
chain: B1 chain
As for B2, the Kd turned out to be 30 pM with 151 [3] and 12.2 pM with 158.3 [4].

Broadly, the Kd is the equilibrium constant for the complex coming apart. A lower Kd goes with a tighter complex.

The values above are taken from US20190055316A1 (published 2019).
